Columns and labels:
HepG2 cells = assay: HAMP and ID1 qRT-PCR in HepG2 cells treated with BMPs with or without mouse ERFE; type: cell-based; conditions: 2 nM BMP 2/6, BMP6 or BMP7 + 10 μg/ml mouse ERFE, 6 h, serum-free media
Description: (§1) (b) Gene expression microarray: Microarray analysis of Huh7 cells treated with mouse or human erythroferrone was carried out to test the activity of erythroferrone on the BMP/SMAD signalling pathway. Generally cell treatments were carried out according to the following protocol: Huh7 and HepG2 were cultured in Dulbecco's Modified Eagle's Medium—High Glucose (Sigma), supplemented with 10% Fetal Bovine Serum (Sigma), 1% Penicillin-Streptomycin (Sigma) and 1% L-Glutamine (Sigma), unless otherwise indicated. Cells were plated 24 h before treatments in 24-well (gene expression analysis) or 12-well (protein analysis) cell culture plates. At the time of treatment, cells were washed with PBS and fresh media was added.
(c) RNA isolation, cDNA synthesis and qRT-PCR: Suppression of several BMP-target genes: HAMP, ID1, ID3, SMAD6 and SMAD7 was further confirmed by qRT-PCR. Cells were lysed and RNA was isolated using the RNeasy Plus kit (Qiagen), followed by RNA quantification and quality assessment using Nanodrop (Thermo Fisher). cDNA was synthesized using the High Capacity RNA-to-cDNA kit (Applied Biosystems). Gene expression was assessed using quantitative real-time PCR with Taqman Gene Expression Master Mix and inventoried Taqman Gene expression assays (Applied Biosystems) specific for the genes of interest according to the manufacturer's instructions. […]

[1] = tested on: BMP-target genes in the liver; assay: Short-term ERFE treatment in WT mice: liver BMP-target genes, serum and liver iron; type: in vivo; conditions: 200 μg i.v., 3 h
Description: (a) Animal studies: Wild-type male C57BL/6 mice were purchased from Harlan Laboratories, UK. Embryos from Fam132b+/− mice on a mixed Sv129/C57BL/6 background were obtained from the Mutant Mouse Regional Resource Center (MMRRC) at UC Davis (strain 66; 12955-Fam132btm1Lex/Mmucd, ID MMRRC:032289-UCD) and backcrossed onto C57BL/6 background using marker-assisted accelerated backcrossing. Heterozygote pairs were mated to generate homozygous animals from which knockout and wild-type colonies were maintained. Animals were housed in individually ventilated cages in the Department of Biomedical Services, University of Oxford, and provided access to normal chow (163 ppm of iron, Special Diets Services 801700) and water ad libitum. All experiments were performed in 9-13 weeks old male mice. For EPO treatments, mice were injected intraperitoneally with 200 IU recombinant human EPO (Bio-Rad) in water or vehicle (water) daily for three consecutive days and culled 24 h after the last EPO injection. For ERFE treatments, mice were injected intravenously with 200 μg of recombinant mouse ERFE or vehicle (saline) and culled 3 h after treatment. Mice were euthanized in increasing CO2 concentrations.
(b) Serum iron analysis: Blood was taken by cardiac puncture immediately after euthanising mice and collected in BD EDTA or SST (serum) Microtainer tubes. Serum was prepared by centrifugation of clotted blood at 8000×g for 3 minutes in BD Microtainer SST tubes (Beckton Dickinson) and used for serum iron quantification using a Abbott Architect c16000 automated analyzer (Abbott Laboratories).
(c) Tissue non-heme iron measurement: Liver tissues were dried for 4 hours at 100° C., weighed and digested in 10% tricholoroacetic acid (Sigma)/30% hydrochloric acid (Sigma) for 20 hours at 65° C. A standard curve was generated using a dilution series of ferric ammonium citrate (Sigma) in the 10% (w/v) trichloroacetic acid/30% hydrochloric acid mixture. Non-heme iron content was determined colorimetrically by measuring absorbance at 535 nm following reaction with chromogen reagent containing 0.1% (w/v) bathophenoldisulphonic acid (Sigma)/0.8% thioglycolic acid (Sigma).
Three hours after the injections, mice were culled and serum and liver iron measured. […] Additionally, three hours after the injections, mice were culled and the liver harvested for analysis of liver gene expression for BMP-target genes.

Huh7 cells = assay: qRT-PCR of BMP/SMAD target genes in Huh7 cells treated with ERFE; type: cell-based; conditions: Huh7, mouse ERFE 10 μg/ml vs vehicle
Description: as §1
(c) RNA isolation, cDNA synthesis and qRT-PCR: Suppression of several BMP-target genes: HAMP, ID1, ID3, SMAD6 and SMAD7 was further confirmed by qRT-PCR. Cells were lysed and RNA was isolated using the RNeasy Plus kit (Qiagen), followed by RNA quantification and quality assessment using Nanodrop (Thermo Fisher). cDNA was synthesized using the High Capacity RNA-to-cDNA kit (Applied Biosystems). Gene expression was assessed using quantitative real-time PCR with Taqman Gene Expression Master Mix and inventoried Taqman Gene expression assays (Applied Biosystems) specific for the genes of interest according to the manufacturer's instructions.

B1: mouse ERFE: recombinant mouse erythroferrone (SEQ ID NO: 2); monoFC-muErfe is a monomeric FC murine ERFE fusion (protein, listed as Mus musculus)
chain: MASRRPVGARTLLACASLLAAMGLGVPESAEPVGTHARPQPPGAELPAPPANSPPEPIAHAHSVDPRDAWMLFVKQSDKGINSKRRSKARRLKLGLPGPPGPPGPQGPPGPFIPSEVLLKEFQLLLKGAVRQRESHLEHCTRDLPASGSPSRVPAAQELDSQDPGALLALLAATLAQGPRAPRVEAAFHCRLRRDVQVDRRALHELGIYYLPEVEGAFHRGPGLNLTSGQYTAPVAGFYALAATLHVALTEQPRKGPTRPRDRLRLLICIQSLCQHNASLETVMGLENSSELFISVNGVLYLQAGHYSVFLDNASGSSLTVRSGSHFSAILLGL
With B1 the “HAMP and ID1 expression / BMP/SMAD signalling in BMP-treated HepG2 cells” value (HepG2 cells) was “suppresses”, the liver iron [1] was “not affected” and the serum iron [1] was “not affected”. For the same molecule, the serum hepcidin levels ([1]; in comparison to the control) was “reduced”, the “liver expression of Hamp and BMP-target genes” value ([1]; vs inactive control Clip huERFE) was “significantly reduced” and the “expression of BMP-target genes HAMP, ID1, ID3, SMAD6 and SMAD7” value (Huh7 cells) was “Suppression”. The “expression of FGA (JAK/STAT3 target gene)” value (Huh7 cells) was “no changes”.
